Reference: publication doi:10.1101/317677

Molecular target: T1, Lon (wildtype) (UniProt P0CAW0 1-799)
T1 sequence: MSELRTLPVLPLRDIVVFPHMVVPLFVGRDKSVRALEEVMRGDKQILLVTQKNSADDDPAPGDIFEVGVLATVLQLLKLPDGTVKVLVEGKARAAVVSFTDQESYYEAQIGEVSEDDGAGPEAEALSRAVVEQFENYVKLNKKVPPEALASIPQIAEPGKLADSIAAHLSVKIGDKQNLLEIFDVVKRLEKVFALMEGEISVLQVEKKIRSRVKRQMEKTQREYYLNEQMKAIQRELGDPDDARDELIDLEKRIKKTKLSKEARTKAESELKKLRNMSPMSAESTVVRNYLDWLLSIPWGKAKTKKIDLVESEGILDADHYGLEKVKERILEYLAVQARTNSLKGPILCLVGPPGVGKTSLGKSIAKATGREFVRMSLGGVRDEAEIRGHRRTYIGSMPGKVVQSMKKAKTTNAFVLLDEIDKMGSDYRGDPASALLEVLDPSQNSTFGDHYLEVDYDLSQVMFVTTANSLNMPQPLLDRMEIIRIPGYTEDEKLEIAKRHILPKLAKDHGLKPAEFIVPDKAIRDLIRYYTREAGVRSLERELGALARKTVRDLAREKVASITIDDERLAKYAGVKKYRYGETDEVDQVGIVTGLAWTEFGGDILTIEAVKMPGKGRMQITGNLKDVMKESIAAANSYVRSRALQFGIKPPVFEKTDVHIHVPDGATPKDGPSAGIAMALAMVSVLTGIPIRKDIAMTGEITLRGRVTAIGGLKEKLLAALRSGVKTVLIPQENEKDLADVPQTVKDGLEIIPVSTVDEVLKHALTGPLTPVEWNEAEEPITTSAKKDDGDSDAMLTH
Assay: fluorescence polarization

## AACGGATGATCCACAGGAGAGTCTGGCGCAGGGCGAGAG (ssDNA) [FAM-DNA oligo]
  Kd: 286 nM
